Laboratory results reported in PMC13397619.

B1: NLV3 TCR beta chain (CDR3β only) (parent)
chain: ASSPTGGSPSPLH

Variants of: B1
Assay: T-Switch: Jurkat TCRβ−/− cells expressing a CDR3 saturation-mutagenesis library, stained with two peptide-HLA-A*02:01 tetramers (original and novel peptide) plus anti-CD3, FACS-sorted into four gates, gDNA sequenced
Details: with both tetramers (double-negative gate, binds neither): HLA-A*02:01 with … and with …, tetramers 1 µg/mL, 30 min on ice, SP, DP and SW gates expanded about 10 days between rounds ('two to three rounds of selection' in the Methods), gate DN: OPPOSITE: higher = more of the variant in the gate that binds neither peptide = LESS binding (or no expression; inferred). Fold enrichment of the CDR3 variant in one FACS gate of a two-tetram, unresolved parent, parent is a CDR3 fragment, scale: fold enrichment, numbering: sequential-on-construct, sequence starts at 1
In the case of […] (CDR3 as printed); S2I derived by comparing it with the table's wild-type CDR3 ASSPTGGSPSPLH, the enrichment is reported as 0.694.
Variant […] (CDR3 as printed); P11F derived by comparing it with the table's wild-type CDR3 ASSPTGGSPSPLH has an enrichment of 0.728.
[…] (CDR3 as printed); S2Q derived by comparing it with the table's wild-type CDR3 ASSPTGGSPSPLH showed an enrichment of 0.653.
[…] (CDR3 as printed); S3A derived by comparing it with the table's wild-type CDR3 ASSPTGGSPSPLH showed an enrichment of 0.616.
[…] (CDR3 as printed); P11T derived by comparing it with the table's wild-type CDR3 ASSPTGGSPSPLH was tested, and the enrichment was 1.19.
For […] (CDR3 as printed); P11A derived by comparing it with the table's wild-type CDR3 ASSPTGGSPSPLH, the enrichment was 0.423.
[…] (CDR3 as printed); S3V derived by comparing it with the table's wild-type CDR3 ASSPTGGSPSPLH was tested, and the enrichment was 0.951.
Work on […] (CDR3 as printed); T5K derived by comparing it with the table's wild-type CDR3 ASSPTGGSPSPLH yielded an enrichment of 0.965.
Work on […] (CDR3 as printed); S8C derived by comparing it with the table's wild-type CDR3 ASSPTGGSPSPLH yielded an enrichment of 0.677.
[…] (CDR3 as printed); S8E derived by comparing it with the table's wild-type CDR3 ASSPTGGSPSPLH gave an enrichment of 1.16.
[…] (CDR3 as printed); S8I derived by comparing it with the table's wild-type CDR3 ASSPTGGSPSPLH showed an enrichment of 1.23.
For […] (CDR3 as printed); P11R derived by comparing it with the table's wild-type CDR3 ASSPTGGSPSPLH, the enrichment was 0.579.
In the case of […] (CDR3 as printed); P9R derived by comparing it with the table's wild-type CDR3 ASSPTGGSPSPLH, the enrichment is reported as 1.13.
For […] (CDR3 as printed); S3R derived by comparing it with the table's wild-type CDR3 ASSPTGGSPSPLH, the enrichment was 0.964.
[…] (CDR3 as printed); T5A derived by comparing it with the table's wild-type CDR3 ASSPTGGSPSPLH gave an enrichment of 0.817.
Work on […] (CDR3 as printed); S10L derived by comparing it with the table's wild-type CDR3 ASSPTGGSPSPLH yielded an enrichment of 0.468.
[…] (CDR3 as printed); S10G derived by comparing it with the table's wild-type CDR3 ASSPTGGSPSPLH gave an enrichment of 0.33.
With […] (CDR3 as printed); T5D derived by comparing it with the table's wild-type CDR3 ASSPTGGSPSPLH the enrichment was 1.06.
Variant […] (CDR3 as printed); S10C derived by comparing it with the table's wild-type CDR3 ASSPTGGSPSPLH has an enrichment of 0.577.
[…] (CDR3 as printed); S10W derived by comparing it with the table's wild-type CDR3 ASSPTGGSPSPLH was tested, and the enrichment was 1.12.
For […] (CDR3 as printed); S2M derived by comparing it with the table's wild-type CDR3 ASSPTGGSPSPLH, the enrichment was 0.757.
[…] (CDR3 as printed); P9I derived by comparing it with the table's wild-type CDR3 ASSPTGGSPSPLH was tested, and the enrichment was 1.11.
[…] (CDR3 as printed); S10F derived by comparing it with the table's wild-type CDR3 ASSPTGGSPSPLH was tested, and the enrichment was 1.25.
For […] (CDR3 as printed); P9Y derived by comparing it with the table's wild-type CDR3 ASSPTGGSPSPLH, the enrichment was 0.562.

Same assay, conditions: with both tetramers (double-positive gate): HLA-A*02:01 with … and with …, tetramers 1 µg/mL, 30 min on ice, SP, DP and SW gates expanded about 10 days between rounds ('two to three rounds of selection' in the Methods), gate DP: higher = more of the variant in the gate that binds both peptides. Fold enrichment of the CDR3 variant in one FACS gate of a two-tetramer stain. SP/DP/SW gates were expanded and re-sorted bef, unresolved parent, parent is a CDR3 fragment, scale: fold enrichment, numbering: sequential-on-construct, sequence starts at 1
Work on […] (CDR3 as printed); S2I derived by comparing it with the table's wild-type CDR3 ASSPTGGSPSPLH yielded an enrichment of 0.
Variant […] (CDR3 as printed); P11F derived by comparing it with the table's wild-type CDR3 ASSPTGGSPSPLH has an enrichment of 0.
For […] (CDR3 as printed); S2Q derived by comparing it with the table's wild-type CDR3 ASSPTGGSPSPLH, the enrichment was 0.
[…] (CDR3 as printed); S3A derived by comparing it with the table's wild-type CDR3 ASSPTGGSPSPLH showed an enrichment of 0.
With […] (CDR3 as printed); P11T derived by comparing it with the table's wild-type CDR3 ASSPTGGSPSPLH the enrichment was 0.
For […] (CDR3 as printed); P11A derived by comparing it with the table's wild-type CDR3 ASSPTGGSPSPLH, the enrichment was 0.
[…] (CDR3 as printed); S3V derived by comparing it with the table's wild-type CDR3 ASSPTGGSPSPLH was tested, and the enrichment was 0.
[…] (CDR3 as printed); T5K derived by comparing it with the table's wild-type CDR3 ASSPTGGSPSPLH showed an enrichment of 0.
[…] (CDR3 as printed); S8C derived by comparing it with the table's wild-type CDR3 ASSPTGGSPSPLH was tested, and the enrichment was 0.
With […] (CDR3 as printed); S8E derived by comparing it with the table's wild-type CDR3 ASSPTGGSPSPLH the enrichment was 0.
Work on […] (CDR3 as printed); S8I derived by comparing it with the table's wild-type CDR3 ASSPTGGSPSPLH yielded an enrichment of 0.
[…] (CDR3 as printed); P11R derived by comparing it with the table's wild-type CDR3 ASSPTGGSPSPLH was tested, and the enrichment was 0.
[…] (CDR3 as printed); P9R derived by comparing it with the table's wild-type CDR3 ASSPTGGSPSPLH was tested, and the enrichment was 0.
With […] (CDR3 as printed); S3R derived by comparing it with the table's wild-type CDR3 ASSPTGGSPSPLH the enrichment was 0.
Work on […] (CDR3 as printed); T5A derived by comparing it with the table's wild-type CDR3 ASSPTGGSPSPLH yielded an enrichment of 0.
For […] (CDR3 as printed); S10L derived by comparing it with the table's wild-type CDR3 ASSPTGGSPSPLH, the enrichment was 0.
Variant […] (CDR3 as printed); S10G derived by comparing it with the table's wild-type CDR3 ASSPTGGSPSPLH has an enrichment of 0.
In the case of […] (CDR3 as printed); T5D derived by comparing it with the table's wild-type CDR3 ASSPTGGSPSPLH, the enrichment is reported as 0.
Work on […] (CDR3 as printed); S10C derived by comparing it with the table's wild-type CDR3 ASSPTGGSPSPLH yielded an enrichment of 0.
[…] (CDR3 as printed); S10W derived by comparing it with the table's wild-type CDR3 ASSPTGGSPSPLH showed an enrichment of 0.
[…] (CDR3 as printed); S2M derived by comparing it with the table's wild-type CDR3 ASSPTGGSPSPLH showed an enrichment of 0.
[…] (CDR3 as printed); P9I derived by comparing it with the table's wild-type CDR3 ASSPTGGSPSPLH was tested, and the enrichment was 0.
For […] (CDR3 as printed); S10F derived by comparing it with the table's wild-type CDR3 ASSPTGGSPSPLH, the enrichment was 0.
[…] (CDR3 as printed); P9Y derived by comparing it with the table's wild-type CDR3 ASSPTGGSPSPLH showed an enrichment of 0.

Same assay, conditions: with both tetramers (double-negative gate, binds neither): HLA-A*02:01 with … and with …, tetramers 1 µg/mL, 30 min on ice, SP, DP and SW gates expanded about 10 days between rounds ('two to three rounds of selection' in the Methods), gate DN: OPPOSITE: higher = more of the variant in the gate that binds neither peptide = LESS binding (or no expression; inferred). Fold enrichment of the CDR3 variant in one FACS gate of a two-tetram, unresolved parent, parent is a CDR3 fragment, zero in all gates, scale: fold enrichment, numbering: sequential-on-construct, …
[…] (CDR3 as printed); S2L derived by comparing it with the table's wild-type CDR3 ASSPTGGSPSPLH gave an enrichment of 0.

Same assay, conditions: with both tetramers (double-positive gate): HLA-A*02:01 with … and with …, tetramers 1 µg/mL, 30 min on ice, SP, DP and SW gates expanded about 10 days between rounds ('two to three rounds of selection' in the Methods), gate DP: higher = more of the variant in the gate that binds both peptides. Fold enrichment of the CDR3 variant in one FACS gate of a two-tetramer stain. SP/DP/SW gates were expanded and re-sorted bef, unresolved parent, parent is a CDR3 fragment, zero in all gates, scale: fold enrichment, numbering: sequential-on-construct, sequence starts at 1
Variant […] (CDR3 as printed); S2L derived by comparing it with the table's wild-type CDR3 ASSPTGGSPSPLH has an enrichment of 0.
